# From paper PMC12183618
# Key:
# [1] = molecular target: MmpL10‐mEGFP‐FLMsm (Mycobacterium smegmatis); assay: SEC; Superose 6 Increase 10/300 GL, 50 mM Tris-HCl pH 8, 150 mM NaCl, 3x CMC LMNG (m1 also in DDM and LDAO); apparent MW from a calibration curve
# [2] = molecular target: MmpL10‐mEGFP‐FLMsm (Mycobacterium smegmatis); assay: negative-stain electron microscopy; top SEC peak fraction in LMNG at 0.5 μM, uranyl acetate 1%; low-resolution map, C1 symmetry, fitted with a trimeric AlphaFold v3 model
substance,measurement,setting,value
MmpL10‐mEGFP‐FLMsm (natural protein),stoichiometry N,[1],3
same,stoichiometry N,[2],3
